Data taken from IntAct's records for PubMed 31515488.

B1: Zinc finger protein 473 (Homo sapiens), Q8WTR7 (parent)
chain: MAEEFVTLKDVGMDFTLGDWEQLGLEQGDTFWDTALDNCQDLFLLDPPRPNLTSHPDGSEDLEPLAGGSPEATSPDVTETKNSPLMEDFFEEGFSQEIIEMLSKDGFWNSNFGEACIEDTWLDSLLGDPESLLRSDIATNGESPTECKSHELKRGLSPVSTVSTGEDSMVHNVSEKTLTPAKSKEYRGEFFSYSDHSQQDSVQEGEKPYQCSECGKSFSGSYRLTQHWITHTREKPTVHQECEQGFDRNASLSVYPKTHTGYKFYVCNEYGTTFSQSTYLWHQKTHTGEKPCKSQDSDHPPSHDTQPGEHQKTHTDSKSYNCNECGKAFTRIFHLTRHQKIHTRKRYECSKCQATFNLRKHLIQHQKTHAAKTTSECQECGKIFRHSSLLIEHQALHAGEEPYKCNERGKSFRHNSTLKIHQRVHSGEKPYKCSECGKAFHRHTHLNEHRRIHTGYRPHKCQECVRSFSRPSHLMRHQAIHTAEKPYSCAECKETFSDNNRLVQHQKMHTVKTPYECQECGERFICGSTLKCHESVHAREKQGFFVSGKILDQNPEQKEKCFKCNKCEKTFSCSKYLTQHERIHTRGVKPFECDQCGKAFGQSTRLIHHQRIHSRVRLYKWGEQGKAISSASLIKLQSFHTKEHPFKCNECGKTFSHSAHLSKHQLIHAGENPFKCSKCDRVFTQRNYLVQHERTHARKKPLVCNECGKTFRQSSCLSKHQRIHSGEKPYVCDYCGKAFGLSAELVRHQRIHTGEKPYVCQECGKAFTQSSCLSIHRRVHTGEKPYRCGECGKAFAQKANLTQHQRIHTGEKPYSCNVCGKAFVLSAHLNQHLRVHTQETLYQCQRCQKAFRCHSSLSRHQRVHNKQQYCL
B2: Pre-mRNA-splicing factor SPF27 (Homo sapiens), O75934 (parent)
chain: MAGTGLVAGEVVVDALPYFDQGYEAPGVREAAAALVEEETRRYRPTKNYLSYLTAPDYSAFETDIMRNEFERLAARQPIELLSMKRYELPAPSSGQKNDITAWQECVNNSMAQLEHQAVRIENLELMSQHGCNAWKVYNENLVHMIEHAQKELQKLRKHIQDLNWQRKNMQLTAGSKLREMESNWVSLVSKNYEIERTIVQLENEIYQIKQQHGEANKENIRQDF
B3: Mediator of RNA polymerase II transcription subunit 20 (Homo sapiens), Q9H944 (parent)
chain: MGVTCVSQMPVAEGKSVQQTVELLTRKLEMLGAEKQGTFCVDCETYHTAASTLGSQGQTGKLMYVMHNSEYPLSCFALFENGPCLIADTNFDVLMVKLKGFFQSAKASKIETRGTRYQYCDFLVKVGTVTMGPSARGISVEVEYGPCVVASDCWSLLLEFLQSFLGSHTPGAPAVFGNRHDAVYGPADTMVQYMELFNKIRKQQQVPVAGIR
partner: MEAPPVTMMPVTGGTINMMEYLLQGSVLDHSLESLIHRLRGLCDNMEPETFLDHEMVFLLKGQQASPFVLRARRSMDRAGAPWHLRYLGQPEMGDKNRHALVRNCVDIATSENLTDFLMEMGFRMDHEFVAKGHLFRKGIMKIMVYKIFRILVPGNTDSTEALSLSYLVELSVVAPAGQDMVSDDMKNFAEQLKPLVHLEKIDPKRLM
B4: Splicing factor 45 (Homo sapiens), Q96I25 (parent)
chain: MSLYDDLGVETSDSKTEGWSKNFKLLQSQLQVKKAALTQAKSQRTKQSTVLAPVIDLKRGGSSDDRQIVDTPPHVAAGLKDPVPSGFSAGEVLIPLADEYDPMFPNDYEKVVKRQREERQRQRELERQKEIEEREKRRKDRHEASGFARRPDPDSDEDEDYERERRKRSMGGAAIAPPTSLVEKDKELPRDFPYEEDSRPRSQSSKAAIPPPVYEEQDRPRSPTGPSNSFLANMGGTVAHKIMQKYGFREGQGLGKHEQGLSTALSVEKTSKRGGKIIVGDATEKDASKKSDSNPLTEILKCPTKVVLLRNMVGAGEVDEDLEVETKEECEKYGKVGKCVIFEIPGAPDDEAVRIFLEFERVESAIKAVVDLNGRYFGGRVVKACFYNLDKFRVLDLAEQV
B5: mRNA-decapping enzyme 1A (Homo sapiens), Q9NPI6 (parent)
chain: MEALSRAGQEMSLAALKQHDPYITSIADLTGQVALYTFCPKANQWEKTDIEGTLFVYRRSASPYHGFTIVNRLNMHNLVEPVNKDLEFQLHEPFLLYRNASLSIYSIWFYDKNDCHRIAKLMADVVEEETRRSQQAARDKQSPSQANGCSDHRPIDILEMLSRAKDEYERNQMGDSNISSPGLQPSTQLSNLGSTETLEEMPSGSQDKSAPSGHKHLTVEELFGTSLPKEQPAVVGLDSEEMERLPGDASQKEPNSFLPFPFEQLGGAPQSETLGVPSAAHHSVQPEITTPVLITPASITQSNEKHAPTYTIPLSPVLSPTLPAEAPTAQVPPSLPRNSTMMQAVKTTPRQRSPLLNQPVPELSHASLIANQSPFRAPLNVTNTAGTSLPSVDLLQKLRLTPQHDQIQTQPLGKGAMVASFSPAAGQLATPESFIEPPSKTAAARVAASASLSNMVLAPLQSMQQNQDPEVFVQPKVLSSAIPVAGAPLVTATTTAVSSVLLAPSVFQQTVTRSSDLERKASSPSPLTIGTPESQRKPSIILSKSQLQDTLIHLIKNDSSFLSTLHEVYLQVLTKNKDNHNL
partner: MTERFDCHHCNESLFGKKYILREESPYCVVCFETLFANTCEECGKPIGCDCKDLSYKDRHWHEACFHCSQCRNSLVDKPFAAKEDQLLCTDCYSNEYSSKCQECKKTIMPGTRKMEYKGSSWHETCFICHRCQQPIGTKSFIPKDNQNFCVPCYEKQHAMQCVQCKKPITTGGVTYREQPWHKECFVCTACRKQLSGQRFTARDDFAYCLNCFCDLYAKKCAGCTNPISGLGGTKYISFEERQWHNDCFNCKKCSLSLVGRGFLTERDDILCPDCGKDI
B6: Microtubule-associated tumor suppressor candidate 2 (Homo sapiens), Q5JR59-3 (parent)
chain: MGHCCCKPYNCLQCLDKTNESALVKEKELSIELANIRDEVAFHTAKCEKLQKEKEELERRFEDEVKRLGWQQQAELQELEERLQLQFEAEMARLQEEHGDQLLSIRCQHQEQVEDLTASHDAALLEMENNHTVAITILQDDHDHKVQELMSTHELEKKELEENFEKLRLSLQDQVDTLTFQSQSLRDRARRFEEALRKNTEEQLEIALAPYQHLEEDMKSLKQVLEMKNQQIHEQEKKILELEKLAEKNIILEEKIQVLQQQNEDLKARIDQNTVVTRQLSEENANLQEYVEKETQEKKRLSRTNEELLWKLQTGDPTSPIKLSPTSPVYRGSSSGPSSPARVSTTPR
partner: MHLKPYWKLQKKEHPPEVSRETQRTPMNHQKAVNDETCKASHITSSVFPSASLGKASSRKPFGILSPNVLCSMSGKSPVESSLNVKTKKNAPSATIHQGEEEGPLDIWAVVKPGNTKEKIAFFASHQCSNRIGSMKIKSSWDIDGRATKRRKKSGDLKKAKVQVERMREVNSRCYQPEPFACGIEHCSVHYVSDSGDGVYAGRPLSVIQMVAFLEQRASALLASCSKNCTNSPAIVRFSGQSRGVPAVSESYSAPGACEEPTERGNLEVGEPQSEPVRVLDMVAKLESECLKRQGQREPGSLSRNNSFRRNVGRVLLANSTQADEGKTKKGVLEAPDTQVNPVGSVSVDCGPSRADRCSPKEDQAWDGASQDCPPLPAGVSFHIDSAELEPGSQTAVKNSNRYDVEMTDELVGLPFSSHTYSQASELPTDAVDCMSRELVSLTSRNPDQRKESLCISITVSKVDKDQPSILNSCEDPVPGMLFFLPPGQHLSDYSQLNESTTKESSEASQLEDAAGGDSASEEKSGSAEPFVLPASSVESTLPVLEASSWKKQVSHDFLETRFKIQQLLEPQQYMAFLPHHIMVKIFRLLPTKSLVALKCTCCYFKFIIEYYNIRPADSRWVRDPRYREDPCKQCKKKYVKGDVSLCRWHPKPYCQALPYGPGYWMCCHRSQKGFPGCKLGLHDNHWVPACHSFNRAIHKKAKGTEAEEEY

Variants of: B1
Details: with aen_human AEN

| effect of a mutation on the interaction | Variant |
| --- | --- |
| with no effect | T654I |

Variants of: B1
Details: with gpt2l_human GPATCH2L

| effect of a mutation on the interaction | Variant |
| --- | --- |
| with no effect | T654I |
| with no effect | S662A |
| with no effect | S59G |

Variants of: B1
Details: with tri41_human TRIM41, Q8WV44

| effect of a mutation on the interaction | Variant |
| --- | --- |
| with no effect | T654I |
| with no effect | S662A |
| with no effect | N82S |
| with no effect | S59G |

Variants of: B1
Details: with zn792_human ZNF792, Q3KQV3
Chain of zn792_human ZNF792, Q3KQV3 (Q3KQV3 whole entry): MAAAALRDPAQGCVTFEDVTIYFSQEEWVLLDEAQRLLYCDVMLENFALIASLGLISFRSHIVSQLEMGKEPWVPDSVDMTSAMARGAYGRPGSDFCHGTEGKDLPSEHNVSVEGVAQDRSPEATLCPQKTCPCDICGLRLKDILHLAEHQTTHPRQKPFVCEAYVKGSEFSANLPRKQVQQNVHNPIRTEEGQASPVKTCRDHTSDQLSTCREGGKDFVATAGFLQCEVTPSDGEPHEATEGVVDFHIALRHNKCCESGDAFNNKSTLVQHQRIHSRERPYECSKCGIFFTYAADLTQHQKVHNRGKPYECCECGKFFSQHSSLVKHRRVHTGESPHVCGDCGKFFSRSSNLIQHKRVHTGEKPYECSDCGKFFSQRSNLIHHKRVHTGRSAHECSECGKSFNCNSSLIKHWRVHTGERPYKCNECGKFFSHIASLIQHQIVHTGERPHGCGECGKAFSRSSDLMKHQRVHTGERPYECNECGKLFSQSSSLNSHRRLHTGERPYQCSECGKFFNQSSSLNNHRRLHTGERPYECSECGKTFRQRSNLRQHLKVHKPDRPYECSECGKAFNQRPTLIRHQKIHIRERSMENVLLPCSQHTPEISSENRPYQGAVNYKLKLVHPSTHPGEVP

| effect of a mutation on the interaction | Variant |
| --- | --- |
| with no effect | T654I |
| with no effect | S59G |

Variants of: B1
Details: with zn792_human ZNF792, Q3KQV3
Remark: another data set of the same source

| effect of a mutation on the interaction | Variant |
| --- | --- |
| with no effect | S662A |
| with no effect | N82S |

Variants of: B1
Details: with aen_human AEN
Remark: another data set of the same source

| effect of a mutation on the interaction | Variant |
| --- | --- |
| with no effect | S662A |
| with no effect | N82S |
| with no effect | S59G |

Variants of: B1
Details: with ntf2_human NUTF2, P61970
Chain of ntf2_human NUTF2, P61970 (P61970 whole entry): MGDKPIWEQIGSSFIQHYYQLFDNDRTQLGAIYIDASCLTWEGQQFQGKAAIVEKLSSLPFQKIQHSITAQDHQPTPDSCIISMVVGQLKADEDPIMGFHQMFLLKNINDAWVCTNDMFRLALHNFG

| effect of a mutation on the interaction | Variant |
| --- | --- |
| with no effect | S59G |

Variants of: B2
Details: with itf2_human TCF4, P15884
Chain of itf2_human TCF4, P15884 (P15884 whole entry): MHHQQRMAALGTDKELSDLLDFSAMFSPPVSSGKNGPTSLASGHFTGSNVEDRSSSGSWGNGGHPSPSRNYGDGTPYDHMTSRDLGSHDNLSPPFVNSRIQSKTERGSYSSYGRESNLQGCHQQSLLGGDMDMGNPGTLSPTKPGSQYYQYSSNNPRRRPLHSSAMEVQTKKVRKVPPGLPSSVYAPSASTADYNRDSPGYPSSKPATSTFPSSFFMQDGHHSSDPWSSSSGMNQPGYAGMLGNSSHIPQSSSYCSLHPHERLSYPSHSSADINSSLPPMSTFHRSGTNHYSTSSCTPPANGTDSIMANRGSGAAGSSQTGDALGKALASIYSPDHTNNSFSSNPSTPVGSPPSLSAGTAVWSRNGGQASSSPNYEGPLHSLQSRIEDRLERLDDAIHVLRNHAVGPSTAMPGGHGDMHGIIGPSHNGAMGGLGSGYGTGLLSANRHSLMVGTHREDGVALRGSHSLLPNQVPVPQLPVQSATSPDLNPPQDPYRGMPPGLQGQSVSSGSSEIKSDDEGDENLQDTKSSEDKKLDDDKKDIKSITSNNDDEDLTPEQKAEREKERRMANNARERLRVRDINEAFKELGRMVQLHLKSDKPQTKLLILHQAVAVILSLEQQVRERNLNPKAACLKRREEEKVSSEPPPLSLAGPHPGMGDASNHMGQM

| effect of a mutation on the interaction | Variant |
| --- | --- |
| with no effect | N139S |

Variants of: B2
Details: with hgs_human HGS

| effect of a mutation on the interaction | Variant |
| --- | --- |
| with no effect | N139S |

Variants of: B2
Details: with ikzf3_human IKZF3, Q9UKT9
Chain of ikzf3_human IKZF3, Q9UKT9 (Q9UKT9 whole entry): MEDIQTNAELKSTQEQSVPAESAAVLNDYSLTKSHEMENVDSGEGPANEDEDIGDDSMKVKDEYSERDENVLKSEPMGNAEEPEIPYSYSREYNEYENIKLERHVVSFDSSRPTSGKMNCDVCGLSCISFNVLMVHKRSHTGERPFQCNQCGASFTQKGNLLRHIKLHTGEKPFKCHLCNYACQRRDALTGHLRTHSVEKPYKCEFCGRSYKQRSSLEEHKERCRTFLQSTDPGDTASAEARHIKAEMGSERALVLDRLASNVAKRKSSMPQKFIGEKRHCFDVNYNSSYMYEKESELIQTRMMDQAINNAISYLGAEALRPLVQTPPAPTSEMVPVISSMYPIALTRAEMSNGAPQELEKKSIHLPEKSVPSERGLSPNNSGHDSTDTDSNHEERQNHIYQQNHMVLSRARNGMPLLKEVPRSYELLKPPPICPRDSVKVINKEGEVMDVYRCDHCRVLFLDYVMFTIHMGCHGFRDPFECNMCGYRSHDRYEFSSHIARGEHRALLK

| effect of a mutation on the interaction | Variant |
| --- | --- |
| with no effect | N139S |

Variants of: B3
Details: with med18_human MED18, Q9BUE0

| effect of a mutation on the interaction | Variant |
| --- | --- |
| with no effect | A50T |

Variants of: B4
Details: with sat1_human SAT1, P21673
Chain of sat1_human SAT1, P21673 (P21673 whole entry): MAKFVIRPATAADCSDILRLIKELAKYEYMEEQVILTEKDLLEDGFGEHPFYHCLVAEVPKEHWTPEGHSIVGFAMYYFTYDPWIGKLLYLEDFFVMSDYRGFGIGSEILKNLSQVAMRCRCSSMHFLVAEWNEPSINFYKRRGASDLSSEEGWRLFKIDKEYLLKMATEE

| effect of a mutation on the interaction | Variant |
| --- | --- |
| with no effect | T224I |

Variants of: B5
Details: with fhl2_human FHL2, Q14192

| effect of a mutation on the interaction | Variant |
| --- | --- |
| with no effect | A297G |
| with no effect | Q474H |
| with no effect | P332T |

Variants of: B6
Details: with fbx34_human FBXO34, Q9NWN3

| effect of a mutation on the interaction | Variant |
| --- | --- |
| with no effect | A89V |
